5 molecules from publication PMC8217500, “Sequence signatures of two public antibody clonotypes that bind SARS-CoV-2 receptor binding domain” (Nature Communications, 2021) can be followed below.

The target of experiment [1] is T1, Fc-tagged SARS-CoV-2 receptor-binding domain (RBD), wild type (SARS-CoV-2, Wuhan-Hu-1 (QHD43416.1), UniProt P0DTC2).
T1 construct: also called SARS-CoV-2 RBD; WT RBD; not shown: Fc, C-terminal, kept
Put plainly: BLI; Fc-tagged RBD (20 ug/ml) loaded on anti-hIgG Fc Capture (AHC) biosensors, Fab in solution at four to five concentrations; Octet Red96e, room temperature, 1x kinetics buffer (1x PBS pH 7.4, 0.01% w/v BSA, 0.002% v/v Tween 20); 1:1 binding model. Particulars: both partners purified. For orientation: BLI is a label-free optical method that tracks binding on a fibre tip over time.

The target of experiment [2] is T2, Fc-tagged SARS-CoV-2 spike receptor-binding domain (RBD) (SARS-CoV-2, Wuhan-Hu-1 (QHD43416.1), UniProt P0DTC2).
T2 construct: also called SARS-CoV-2 RBD; Fc-tagged RBD; source: Expi293F, transiently transfected, purified (KanCapA protein A resin); not shown: Fc (after an SSSSG linker), C-terminal, kept
Put plainly: BLI; Fc-tagged RBD (20 ug/ml) loaded on anti-hIgG Fc Capture (AHC) biosensors, Fab in solution; room temperature; 1x PBS pH 7.4, 0.01% BSA, 0.002% Tween 20; 1:1 binding model. Particulars: both partners purified.

Numbering of substitutions follows the chain as printed. Numbers in names are those of the source.

B1: COV107-23 F58Y Fab (Fab, V domains shown)
VH: EVQLVESGGGLIQPGGSLRLSCAASGFTVSSNYMSWVRQAPGKGLEWVSVIYSGGSTYYADSVKGRFTISRDNSKNTLYLQMNSLRAEDTAVYYCARDLGTGLFDYWGQGTLVTVSS
VL: DIQLTQSPSFLSASVGDRVTITCRASQGISSYLAWYQQKPGKAPKLLIYAASTLQSGVPSRFSGSGSGTEFTLTISSLQPEDFATYYCQQLDSYPPGTFGPGTKVDIK
Consider B1, for which the dissociation constant (Kd) (in general, the concentration at which binding is half-saturated) in experiment [1] was 362 ± 18 nM.

B2: CC12.3 F58Y Fab (Fab, V domains shown)
VH: B1 VH with E1Q, N76S, A87V, L99F, T101D, G102F, L103Y
VL: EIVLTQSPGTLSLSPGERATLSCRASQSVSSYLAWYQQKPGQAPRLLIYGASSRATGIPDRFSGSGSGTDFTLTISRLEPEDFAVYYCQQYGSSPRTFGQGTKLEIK
With B2, binding in experiment [1] was characterised by a dissociation constant (Kd) of 97 ± 2 nM.

B3: CC12.3 Fab, Y58 variant (heavy chain F58Y) (Fab, V domains shown)
VH: B1 VH with E1Q, N76S, A87V, L99F, T101D, G102F, L103Y
VL: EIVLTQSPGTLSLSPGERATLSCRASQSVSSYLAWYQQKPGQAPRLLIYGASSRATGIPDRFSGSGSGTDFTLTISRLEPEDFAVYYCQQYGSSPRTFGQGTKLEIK
notes: also called CC12.3 Y58
In turn, B3 displayed an equilibrium dissociation constant (Kd) in experiment [2] of 97 nM.

B4: COVA2-20 Y58F Fab (Fab, V domains shown)
VH: EVQLVESGGGLIQPGGSLRLSCAASGFTVSSNYMSWVRQAPGKGLEWVSVIYSGGSTFYADSVKGRFTISRDNSKNTLYLQMNSLRAEDTAVYYCASPLLLTPPDYYYYMDVWGKGTMVTVSS
VL: DVVMTQSPSSLSVSVGDRVTITCRASQGIRNDLGWYQQKPGKAPKRLIYAASSLQSGVPSRFSGSGSGTEFTLTISSLQPEDFATYYCLQHNSYLWTFGQGTKLEIK
As for B4, binding in experiment [1] was characterised by a dissociation constant (Kd) of 286 ± 17 nM.

B5: COVA2-20 Fab, F58 variant (heavy chain Y58F) (Fab, V domains shown)
VH: B4 VH
VL: B4 VL
notes: also called COVA2-20 F58
B5 had a Kd in experiment [2] of 286 nM.
